Experimental data reported in patent publication CN115873113A (SHANGHAI INST MATERIA MEDICA CAS, dated 2023).

T1: CaSR (细胞内钙流实验中的受体) (human, UniProt P41180 20-1078)
T1 sequence (looked up): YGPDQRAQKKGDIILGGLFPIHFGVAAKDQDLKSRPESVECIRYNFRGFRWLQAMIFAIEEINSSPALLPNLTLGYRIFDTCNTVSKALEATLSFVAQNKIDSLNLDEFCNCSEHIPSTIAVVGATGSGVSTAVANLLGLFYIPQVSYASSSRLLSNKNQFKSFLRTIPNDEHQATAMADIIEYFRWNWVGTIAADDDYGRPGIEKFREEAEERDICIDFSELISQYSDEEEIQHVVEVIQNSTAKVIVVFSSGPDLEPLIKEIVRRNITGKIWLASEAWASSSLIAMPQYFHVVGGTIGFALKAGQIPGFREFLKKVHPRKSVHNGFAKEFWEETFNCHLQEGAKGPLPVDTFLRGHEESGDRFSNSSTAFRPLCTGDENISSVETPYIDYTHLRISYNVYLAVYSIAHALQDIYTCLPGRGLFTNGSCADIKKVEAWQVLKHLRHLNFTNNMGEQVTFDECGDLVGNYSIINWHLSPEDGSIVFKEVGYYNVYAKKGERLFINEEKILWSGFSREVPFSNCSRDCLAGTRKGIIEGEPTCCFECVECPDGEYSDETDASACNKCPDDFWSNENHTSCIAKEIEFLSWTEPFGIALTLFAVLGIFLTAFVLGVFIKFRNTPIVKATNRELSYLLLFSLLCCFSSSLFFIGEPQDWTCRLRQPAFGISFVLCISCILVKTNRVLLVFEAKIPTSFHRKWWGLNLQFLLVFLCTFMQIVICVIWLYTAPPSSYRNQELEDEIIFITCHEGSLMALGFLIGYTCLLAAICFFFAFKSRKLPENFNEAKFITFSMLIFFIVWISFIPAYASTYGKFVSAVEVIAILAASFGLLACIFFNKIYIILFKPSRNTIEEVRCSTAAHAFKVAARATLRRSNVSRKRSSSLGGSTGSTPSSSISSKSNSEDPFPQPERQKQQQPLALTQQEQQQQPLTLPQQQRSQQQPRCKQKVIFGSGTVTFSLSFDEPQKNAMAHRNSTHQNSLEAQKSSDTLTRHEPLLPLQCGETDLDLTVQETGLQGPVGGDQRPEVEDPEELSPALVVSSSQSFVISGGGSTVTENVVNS

T2: Biotin-CaSR蛋白 (人体细胞外钙敏感受体, Human extracellular calcium-sensing receptor) (human, UniProt P41180 20-870, limits assumed, biotinylated (Biotin-CaSR); site not stated)
T2 construct: Purified, detergent-solubilised CaSR; It was biotinylated and captured on NeutrAvidin plates for ELISA or on streptavidin biosensors for Octet
T2 sequence (looked up): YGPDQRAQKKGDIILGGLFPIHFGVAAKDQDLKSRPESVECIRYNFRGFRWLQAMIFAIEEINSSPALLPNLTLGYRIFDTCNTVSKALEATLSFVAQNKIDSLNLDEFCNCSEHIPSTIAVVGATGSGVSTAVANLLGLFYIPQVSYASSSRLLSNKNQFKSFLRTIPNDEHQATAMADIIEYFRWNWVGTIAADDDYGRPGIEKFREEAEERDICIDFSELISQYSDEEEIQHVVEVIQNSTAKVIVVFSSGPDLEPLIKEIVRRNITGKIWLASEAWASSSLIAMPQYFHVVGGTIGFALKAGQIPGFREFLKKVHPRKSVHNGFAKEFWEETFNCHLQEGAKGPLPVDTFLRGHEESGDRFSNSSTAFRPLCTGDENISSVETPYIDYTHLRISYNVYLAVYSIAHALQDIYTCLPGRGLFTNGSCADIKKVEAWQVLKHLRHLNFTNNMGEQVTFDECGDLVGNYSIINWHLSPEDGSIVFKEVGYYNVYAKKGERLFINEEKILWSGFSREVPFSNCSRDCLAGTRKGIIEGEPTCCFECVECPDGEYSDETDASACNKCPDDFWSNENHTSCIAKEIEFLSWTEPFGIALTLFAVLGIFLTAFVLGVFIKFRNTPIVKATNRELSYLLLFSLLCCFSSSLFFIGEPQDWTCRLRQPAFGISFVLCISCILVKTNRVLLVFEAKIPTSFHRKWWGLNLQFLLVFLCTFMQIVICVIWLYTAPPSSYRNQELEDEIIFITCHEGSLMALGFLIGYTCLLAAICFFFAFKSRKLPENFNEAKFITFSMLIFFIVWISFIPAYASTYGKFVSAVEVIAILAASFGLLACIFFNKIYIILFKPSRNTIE


How the values were obtained:
[1] = target: T1, CaSR (细胞内钙流实验中的受体); assay: cell-based or functional assay
[2] = target: T2, Biotin-CaSR蛋白 (人体细胞外钙敏感受体, Human …); assay: BLI (Octet-Red96), Biotin-CaSR on streptavidin biosensor, nanobody in solution
[3] = target: T2, Biotin-CaSR蛋白 (人体细胞外钙敏感受体, Human …); assay: ELISA, Biotin-CaSR on NeutrAvidin plate, nanobody titrated 1e-11 to 1e-6 mol/l, anti-HA detection

| Binder | 钙流 IC50 (细胞外钙离子浓度1.2mM) [1] | Kd [2] | EC50 [3] |
| --- | --- | --- | --- |
| 纳米抗体2D11 (VHH, Camel VHH expressed in E. coli and purified on a nickel column; It was detected through an HA tag; also called 抗体株2D11) VHH: QVQLQESGGGSVQAGGSLRLSCAASGFPISTYDMGWFRQAPGKEREGVVGITDSFSIKYEDSVKGRFTISRDNAKNALYLQMNSLKPEDTGMYYCAAGDARWSLLLRAEQYNYWGQGTQVTVSS | 41 nM | 0.24 nM | 1.9 |
| 纳米抗体1C12 (VHH, Camel VHH expressed in E. coli and purified on a nickel column; also called 抗体株1C12) VHH: QVQLQESGGGSVQAGGSLRLSCTASRYTYNSPLYMAWFRQAPGKEREGVAHIDSDGSITYTDSVKGRFTISRDNAKTTLYLQMNNLNPEDTAMYYCAADPLHRWSHRLEAIGYRYWGQGTQVTVSS | 107 nM | 0.9 nM | 2.1 |
| 纳米抗体NB88 (VHH, Camel VHH expressed in E. coli and purified on a nickel column; It was detected through an HA tag; also called 抗体株NB88) VHH: QVQLQESGGGSVQAGESLRLSCAASRYGYSRNWMGWFRQPPGKEREGVAVIYTGGSKTAYADAVKGRFIISLDNANNTVYLQMNSLKPEDTAMYYCAAGLVAYGRRWSPEAYKYWGQGTQVTVSS | 101 nM | 3.9 nM | 1 |
| 纳米抗体NB32 (VHH, Camel VHH expressed in E. coli and purified on a nickel column; It was detected through an HA tag; also called 抗体株NB32) VHH: QVQLQESGGGSVQAGGSLTLSCAASEYKHRYSTYSMGWFRQAPGKEREGVAAIYSDGGTRYADSVKGRFTISKDNAKSTLYLLMNSLKPEDTAMYYCAASQTFRGWYPYEYNYWGQGTQVTVSS | 301 nM | 3.2 nM | 3 |
| 纳米抗体2D4 (VHH, Camel VHH expressed in E. coli and purified on a nickel column; It was detected through an HA tag; also called 抗体株2D4) VHH: LQESGGGSVQIGGSLRLSCAASGYTYMRYSSFCMGWFRQAPGKEREGVAAIDSGRRTTHADSVKGRFTISRDNAKNTLYLQMNSLKPEDTAMYYCAARDVGYCGGYWARRDFAYWGQGTQVTVSS | 65 nM | 0.46 nM | 0.9 |
